The values below come from patent US20110091994A1, “Methods for Screening Compounds for Treating and/or Preventing an Hepatitis C Virus Infection” (priority 2008, published 2011).

In experiment [1] the target is T1, HCV proteins (Hepatitis C virus genotype 1b, UniProt Q9WMX2).
T1 construct: expressed in transfected cells
Kind of experiment: Validation by Y2H pairwise matrices.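 Note: yeast two-hybrid pairwise tests of interactions first found in Y2H screens of HCV bait proteins against human cDNA libraries.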 Type of experiment: binding. To be noted: validation of interaction with HCV protein NS3.

In experiment [2] the target is T2, GST-tagged viral proteins (Hepatitis C virus genotype 1b, UniProt Q9WMX2).
T2 construct: expressed in transfected cells; host or cells: HEK-293T
T2 sequence (Q9WMX2 1973-2419): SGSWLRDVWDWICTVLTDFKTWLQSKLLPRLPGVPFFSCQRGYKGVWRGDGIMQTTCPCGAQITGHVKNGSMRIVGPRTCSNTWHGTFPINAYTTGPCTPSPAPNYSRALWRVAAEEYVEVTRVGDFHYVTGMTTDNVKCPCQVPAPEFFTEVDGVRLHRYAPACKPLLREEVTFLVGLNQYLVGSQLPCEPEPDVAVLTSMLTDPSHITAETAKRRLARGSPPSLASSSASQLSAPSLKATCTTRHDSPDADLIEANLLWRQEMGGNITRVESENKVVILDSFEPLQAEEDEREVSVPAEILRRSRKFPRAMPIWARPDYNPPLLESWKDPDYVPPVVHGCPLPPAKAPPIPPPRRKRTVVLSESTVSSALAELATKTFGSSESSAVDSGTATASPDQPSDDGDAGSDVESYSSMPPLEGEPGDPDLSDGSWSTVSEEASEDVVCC
Put plainly: Validation by co-affinity purification (CoAP). Type of experiment: binding, HCV genotype 1b, isolate con1. Details: key: +: IMAP validation; −: not validated; NA: non assayable due to default of protein expression or to cellular protein directly interacting with GST. To be noted: interaction with HCV protein NS5A. The procedure, abridged: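 HEK-293T cells were co-transfected with N-terminal GST-tagged HCV bait and 3xFLAG-tagged human prey ORFs, with GST alone as control. Two days later, lysates (0.5% NP-40, pH 8.0) were pulled down on glutathione beads. Preys were detected by anti-FLAG immunoblot after SDS-PAGE.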

Experiment [3] deals with HCV ORFs (Gal4-DB fusions). It counts as binding, HCV genotype 1b, isolate con1. As to conditions: human protein listed by gene symbol; the value names the HCV protein it interacts with.
Experiment [4] deals with T3, HCV ORFs (Gal4-DB fusions) (Hepatitis C virus genotype 1b, UniProt Q9WMX2).
T3 construct: expressed in transfected cells; host or cells: Saccharomyces cerevisiae MAV203 (IMAP1) / AH109 (IMAP2)
Type of experiment: binding, HCV genotype 1b, isolate con1. To be noted: human protein as prey.
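Throughout, for IMAP Y2H IMAP1 (number of IST): yeast two-hybrid screens using HCV genotype 1b proteins fused to Gal4-DB as baits against prey cDNA libraries from human spleen and foetal brain, IMAP1 via transformation and IMAP2 via mating.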
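Throughout, for IMAP Y2H IMAP2 (number of IST): yeast two-hybrid screens using HCV genotype 1b proteins fused to Gal4-DB as baits against prey cDNA libraries from human spleen and foetal brain, IMAP1 via transformation and IMAP2 via mating.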
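Throughout, for Interaction with viral protein: yeast two-hybrid screens using HCV genotype 1b proteins fused to Gal4-DB as baits against prey cDNA libraries from human spleen and foetal brain, IMAP1 via transformation and IMAP2 via mating.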

T1 sequence (Q9WMX2 1027-1657): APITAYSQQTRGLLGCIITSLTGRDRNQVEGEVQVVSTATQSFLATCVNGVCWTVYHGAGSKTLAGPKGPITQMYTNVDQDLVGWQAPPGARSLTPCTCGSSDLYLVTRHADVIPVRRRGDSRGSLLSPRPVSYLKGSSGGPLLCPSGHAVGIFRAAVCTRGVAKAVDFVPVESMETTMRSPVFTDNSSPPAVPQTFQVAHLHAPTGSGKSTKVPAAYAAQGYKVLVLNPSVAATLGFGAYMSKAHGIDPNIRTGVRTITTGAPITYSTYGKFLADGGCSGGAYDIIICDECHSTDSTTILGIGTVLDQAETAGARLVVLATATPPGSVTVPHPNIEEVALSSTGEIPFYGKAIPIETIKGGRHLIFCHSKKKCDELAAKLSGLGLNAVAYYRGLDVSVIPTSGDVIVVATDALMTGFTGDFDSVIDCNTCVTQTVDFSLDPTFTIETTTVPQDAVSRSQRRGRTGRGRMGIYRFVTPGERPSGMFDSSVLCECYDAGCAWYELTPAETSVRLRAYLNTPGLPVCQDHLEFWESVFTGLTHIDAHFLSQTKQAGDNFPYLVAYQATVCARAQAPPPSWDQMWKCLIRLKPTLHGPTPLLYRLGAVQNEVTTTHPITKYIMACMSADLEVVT

B1: TXNDC11 (protein, UniProt Q6PKC3 1-985, looked up)
Thioredoxin domain-containing …: MSECGGRGGGSSSSEDAEDEGGGGGGPAGSDCLSSSPTLATASSAGRLRRGLRGAFLMARQRPELLCGAVALGCALLLALKFTCSRAKDVIIPAKPPVSFFSLRSPVLDLFQGQLDYAEYVRRDSEVVLLFFYAPWCGQSIAARAEIEQAASRLSDQVLFVAINCWWNQGKCRKQKHFFYFPVIYLYHRSFGPIEYKGPMSAVYIEKFVRRVMKPLLYIPSQSELLDFLSNYEPGVLGYFEFSGSPQPPGYLTFFTSALHSLKKALESTSSPRALVSFTGEWHLETKIYVLDYLGTVRFGVITNKHLAKLVSLVHSGSVYLHRHFNTSLVFPREVLNYTAENICKWALENQETLFRWLRPHGGKSLLLNNELKKGPALFLFIPFNPLAESHPLIDEITEVALEYNNCHGDQVVERLLQHLRRVDAPVLESLALEVPAQLPDPPTITASPCCNTVVLPQWHSFSRTHNVCELCVNQTSGGMKPSSVSVPQCSFFEMAAALDSFYLKEQTFYHVASDSIECSNFLTSYSPFSYYTACCRTISRGVSGFIDSEQGVFEAPTVAFSSLEKKCEVDAPSSVPHIEENRYLFPEVDMTSTNFTGLSCRTNKTLNIYLLDSNLFWLYAERLGAPSSTQVKEFAAIVDVKEESHYILDPKQALMKLTLESFIQNFSVLYSPLKRHLIGSGSAQFPSQHLITEVTTDTFWEVVLQKQDVLLLYYAPWCGFCPSLNHIFIQLARNLPMDTFTVARIDVSQNDLPWEFMVDRLPTVLFFPCNRKDLSVKYPEDVPITLPNLLRFILHHSDPASSPQNVANSPTKECLQSEAVLQRGHISHLEREIQKLRAEISSLQRAQVQVESQLSSARRDEHRLRQQQRALEEQHSLLHAHSEQLQALYEQKTRELQELARKLQELADASENLLTENTWLKILVATMERKLEGRDGAESLAAQREVHPKQPEPSATPQLPGSSPPPANVSATLVSERNKENRTD
Regarding B1, in experiment [1], the Y2H matrices result is “+”. The CoAP result in experiment [2] is “+”. Further, the “Interaction with viral protein” value in experiment [3] was “NS3”. The “IMAP Y2H IMAP1 (number of IST)” value in experiment [4] (HCV protein NS3 as bait) is 2. Moreover, the “IMAP Y2H IMAP2 (number of IST)” value in experiment [4] (HCV protein NS5A as bait) came out at 1.
